B1: 单域抗体3F5 (原核粗提VHH) (VHH)
VHH: ESGGGSVQAGGSLRLSCAASGYTYSRNCVGWFRQAPGKEREGVAAIDSGGGYSYYADSVKGRFTISQDNAKNTVFLQMNSLKPEDTAVYYCAAEPASCFPHVPTEVDFGYWGRGTQVTVSS
notes: also called VHH7; not shown: tags from the pMECS vector (detected with anti-HA antibody)
B2: 单域抗体3E11 (原核粗提VHH) (VHH)
VHH: ESGGGSVQAGGSLRLSCVASGYTYSRRCMGWFRQAPGKEREGVAAIYSGNGVTYYPDSVKGRFTISQDNAKNTVYLQMNSLKPEDTAMYYCAAQGDYCYAHAPEPADFGYWGQGTQVTVSS
notes: also called VHH6; not shown: tags from the pMECS vector (detected with anti-HA antibody)
B3: 单域抗体1A5 (原核粗提VHH) (VHH)
VHH: ESGGGSVQAGGSLRLSCAASGYTYSSNCMGWFRQAPGKEREGVAAIDTGGGHTYYADSVVKGRFTISQDNAKNTVYLQMNSLKPEDTAMYYCAADSGYCYAEEPAPDRFGYWGQGTQVTVSS
notes: also called VHH1; not shown: tags from the pMECS vector (detected with anti-HA antibody)
B4: 单域抗体4A4 (原核粗提VHH) (VHH)
VHH: ESGGGSVQAGETLRLSCTASGFTFDDSDMGWYRQAPGNECELVSIMRSDRSTYYAASVKGRFTISQDNAKNTVYLQMNSLKPEDTAVYHCAAAGAISIAAACPTHWWGQGTQVTVSS
notes: also called VHH9; not shown: tags from the pMECS vector (detected with anti-HA antibody)
B5: 单域抗体1B5 (原核粗提VHH) (VHH)
VHH: ESGGGSVQAGGSLRLSCAASGYTYSSNCMGWFRQAPGKEREGVAAIDTGGGYTYYADSVEGRFTISQDKAKNTVYLQMNSLKPEDTAMYYCAADTGRCFPHVPYEVDFGYWGQGTQVTVSS
notes: also called VHH2; not shown: tags from the pMECS vector (detected with anti-HA antibody)
B6: 单域抗体4H7 (原核粗提VHH) (VHH)
VHH: ESGGGSVQAGGSLRLSCAASESTYRRTYMAWFRQAPGKERDGVAVIYTGNGVTWYADSVEGRFTISQDNAKNTVYLQMNSLKPEDTAMYYCAADSMRGRNVLHSGFYHYWGQGTQVTVSS
notes: also called VHH11; not shown: tags from the pMECS vector (detected with anti-HA antibody)
B7: 单域抗体2H3 (原核粗提VHH) (VHH)
VHH: ESGGGSVQAGGSLRLSCAASGHTSSSNRMGWFRQAPGKEPEGVAVISTGGGRTLYADSVKGRFTISQDNAKNTLGLQMNSLKPEDTAMYYCAAAASSIAISRFWTWPPKEFFDYWGQGTQVTVSS
notes: also called VHH5; not shown: tags from the pMECS vector (detected with anti-HA antibody)
B8: 单域抗体1E1 (原核粗提VHH) (VHH)
VHH: ESGGGSVEAGGSLRLSCARPGYDYDTDYMGWFRQAPGKEREGVATIYTQKGFTWYADSVKGRFTISQDNAKNTVYLQMNSLKPEDTAMYYCAAADYGAATSKLNPSKYNAWGQGTQVTVSS
notes: also called VHH3; not shown: tags from the pMECS vector (detected with anti-HA antibody)
B9: 单域抗体4D9 (原核粗提VHH) (VHH)
VHH: ESGGGSVQAGGSLRLSCAASGYPYRRNCMGWFRQAPGKEREGVAAIDSAGTTTYADSVKGRFTISKDDAKNTLYLQMNSLKPEDTAMYYCALNAPTWECRAGGAPAFAYSGQGTQVTVSS
notes: also called VHH10; not shown: tags from the pMECS vector (detected with anti-HA antibody)
B10: 单域抗体3G3 (原核粗提VHH) (VHH)
VHH: ESGGGSVQAGGSLRLSCVGSRYTSITGCMGWFRQAPGKEREGVAAIDTGGGHTYYADSVKGRFTIAQDNAKNTVYLQVNSLKPEDTGMYYCAAEASPCFPHNPQVADFGYWGQGTQVTVSS
notes: also called VHH8; not shown: tags from the pMECS vector (detected with anti-HA antibody)
B11: 单域抗体1H1 (原核粗提VHH) (VHH)
VHH: ESGGGSVQAGGSLRLSCAASGYTSRRNCMGWFRQAPGKEREGVAAINTAGGHTYYADSVEGRFTISQDNARNTVYLQMNSLKPEDTGMYYCAAETGSYCYAHVPESADFGYWGQGTQVTVSS
notes: also called VHH4; not shown: tags from the pMECS vector (detected with anti-HA antibody)

The target in the experiment is T1, 人源重组CD25蛋白 (human IL-2RA) (human, UniProt P01589 22-240).
T1 construct: extracellular domain; also called CD25重组蛋白; 人源重组胞外结构域蛋白
T1 sequence (looked up): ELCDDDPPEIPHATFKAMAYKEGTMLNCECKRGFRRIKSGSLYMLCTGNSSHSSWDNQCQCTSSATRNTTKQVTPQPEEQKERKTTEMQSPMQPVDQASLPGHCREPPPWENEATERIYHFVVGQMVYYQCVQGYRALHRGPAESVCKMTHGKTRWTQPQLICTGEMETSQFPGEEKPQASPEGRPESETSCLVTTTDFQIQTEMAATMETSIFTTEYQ
The experiment is described as follows: screening ELISA: crude VHH extract on coated CD25, anti-HA-HRP detection; positive if OD450 is over 5 times the control. Background: In an ELISA, binding on a coated surface is turned into a signal by an enzyme label.
With B1, the binding result is “binds”.

B2: the binding result is recorded as “binds”.

For the molecule B3, the binding result is “binds”.

On to B4, for which the binding result is “binds”.

For the molecule B5, the binding result is reported as “binds”.

B6: the binding result was “binds”.

Regarding B7, the binding result was “binds”.

Take B8: the binding result is recorded as “binds”.

Regarding B9, the binding result is “binds”.

For B10, the binding result is “binds”.

Take B11: the binding result is “binds”.

Source of the values: patent CN115181181A (NANJING RONGJIEKANG BIOTECHNOLOGY CO LTD, dated 2022).
